This passage reports EC50 and Kd results from patent US20220340657A1.

The target in assay [1] is cyno-LAG3-hFc (cynomolgus monkey). In words: ELISA.
Assay [2] shares this target. In words: Biacore.

For “positive control antibody Ref (BMS-986016)”, in assay [1], the EC50 is 35.3 nM. In addition, the Kd in assay [2] is 836 nM.
